Results on 1 molecule are retold here after patent publication US12493026B2, “Tissue engineered 3D models for cancer metastasis” (The Board of Trustees of the Leland Stanford Junior …, priority 2019, dated 2025).

Assay [1] relates to tissue engineered bone. Nature of the assay: Bone mineral density of tissue engineered bone in 3D coculture (μCT). The settings on record: 1 μg/mL PTH for 6 hours every 48 hours, FIG. 8(C). It counts as cell-based, human. Here is the method:
Bone mineral density was evaluated over 14 days by comparing tissue engineered bone cultured with (+BrCa) and without (−BrCa) breast cancer cells. Cocultures of tissue engineered bone with MDA-MB-231 were generated as described previously and cultured in EMEM GM for 14 days. Bone mineralization was monitored using X-ray microcomputed tomography (GE CT120) with setting of 100 kV X-ray voltage, 500 μA current, 50 μm voxel resolution and continuous 360° rotation scanning. Reconstructed 3D μCT images will be analyzed for changes in bone mineral density using Parallax Microview.
(§1) Cocultures of MDA-MB-231 and tissue engineered bone were developed as previously described. Upon starting the coculture, scaffolds were treated with 1 μg/mL of parathyroid hormone (PTH) or PBS control for 6 hours every 48 hours. Breast cancer cell invasion into tissue-engineered bone was monitored using fluorescence microscopy every other day for 7 days. Bone mineralization was monitored using X-ray microcomputed tomography (GE CT120) with setting of 100 kV X-ray voltage, 500 μA current, 50 μm voxel resolution and continuous 360° rotation scanning. Reconstructed 3D μCT images were analyzed for changes in bone mineral density using Parallax Microview. Osteoblast cell proliferation was tracked over the culture period using bioluminescence imaging.

Assay [2] concerns tissue engineered bone. Nature of the assay: Breast cancer-induced bone resorption in 3D tri-culture model of osteoclasts, osteoblasts and breast cancer cells (μCT). It counts as cell-based. The settings on record: 14 days. Here is the method:
In order to assess the effect of breast cancer in promoting osteoclast activation and bone resorption, the bone mineral density of (1) tissue engineered bone alone (No BrCa), (2) tissue engineered bone+MDA-MB-231 breast cancer cells, and (3) tissue engineered bone+MCF-7 breast cancer cells were evaluated. Tissue engineered bone was developed as described previously. After 28 days in osteogenic media, a 2 mm diameter disk was cut out from the center of tissue engineered bone, leaving an empty hole in the center. Prior to introducing breast cancer cells, 1 million osteoclasts were seeded directly over tissue engineered bone and incubated for 1 hour to allow cells to attach. […] Bone mineralization was monitored using X-ray microcomputed tomography (GE CT120) with setting of 100 kV X-ray voltage, 500 μA current, 50 μm voxel resolution and continuous 360° rotation scanning. Reconstructed 3D μCT images were analyzed for changes in bone mineral density using Parallax Microview.
Validation was performed of a 3D tri-culture model that includes osteoclasts, osteoblasts, and breast cancer cells to mimic clinical outcomes effects of parathyroid hormone treatment on breast cancer patients.
Compared to the bi-culture model earlier (osteoblasts+breast cancer cells), this tri-culture model involves additional osteoclasts seeded on top of the scaffolds. […]

Assay [3] deals with MDA-MB-231 breast cancer cells. Nature of the assay: Breast cancer cell invasion into tissue engineered bone in spatially patterned 3D coculture (fluorescence imaging). It counts as cell-based. The settings on record: 1 μg/mL PTH for 6 hours every 48 hours; MDA-MB-231 coculture, 7 days; FIG. 7(A). From the text:
To mimic the microanatomical structures of breast cancer invasion into bone through bone marrow/long bone interface (FIGS. 1A and 1B), a “doughnut shape” 3D co-culture model was developed with mesenchymal stem cell (MSC)-formed tissue engineered bone in the outside ring, and breast cancer cells in the center (FIG. 1C). To facilitate imaging the two cell populations, human MSCs were fluorescently labelled red and breast cancer cells were labeled green (GFP). Gelatin μRBs were synthesized as previously reported. Freeze-dried μRBs were rehydrated in PBS containing 0.05% lithium phenyl-2,4,6-trimethylbenzoylphosphinate photoinitiator. […] Breast cancer invasion into tissue engineered bone was monitored using fluorescence imaging at the interface between the outer and inner disks.
Cocultures of MDA-MB-231 and tissue engineered bone were developed as previously described. […] Breast cancer cell invasion into tissue-engineered bone was monitored using fluorescence microscopy every other day for 7 days. Bone mineralization was monitored using X-ray microcomputed tomography (GE CT120) with setting of 100 kV X-ray voltage, 500 μA current, 50 μm voxel resolution and continuous 360° rotation scanning. Reconstructed 3D μCT images were analyzed for changes in bone mineral density using Parallax Microview. […]

Assay [4] has as its system breast cancer cell-bone metastasis. The settings on record: mouse models; cited from earlier work.
Assay [5] relates to MDA-MB-231 breast cancer cells. Nature of the assay: Breast cancer cell proliferation in 3D coculture (bioluminescence imaging). It counts as cell-based. The settings on record: 1 μg/mL PTH for 6 hours every 48 hours, FIG. 7(B).
From the text: To evaluate the effect of breast cancer cell aggressiveness in their invasion rate into bone, MDA-MB-231 breast cancer cells (more aggressive) were compared to MCF-7 breast cancer cells (less aggressive). Tissue engineered bone was generated as described previously. MDA-MB-231 and MCF-7 breast cancer cells were encapsulated into gelatin μRBs forming 2 mm diameter disks, which were introduced into the center of tissue-engineered bone and placed in EMEM growth media for 7 days. Breast cancer invasion into all groups was performed using fluorescence imaging at the interface between the outer and inner disks over 7 days. Cell proliferation was tracked over the culture period using bioluminescence imaging.
as §1, with “Osteoblast cell proliferation was tracked over the culture period using bioluminescence imaging.” left out

The subject of another assay is hMSC-derived osteoblasts. Nature of the assay: Osteoblast cell proliferation/survival in 3D coculture (bioluminescence imaging). It counts as cell-based, human. The settings on record: 1 μg/mL PTH for 6 hours every 48 hours, FIG. 8(A). The procedure:
as §1

B1: parathyroid hormone (protein, UniProt P01270 32-115, looked up)
Parathyroid hormone: SVSEIQLMHNLGKHLNSMERVEWLRKKLQDVHNFVALGAPLAPRDAGSQRPRKKEDNVLVESHEKSLGEADKADVNVLTKAKSQ
modifications: Parathyroid hormone
notes: parathyroid hormone; drug that reduces breast cancer-bone metastasis in vivo
For B1, the “breast cancer cell-induced reduction in bone mineralization (bone mineral density)” value with tissue engineered bone [1] is listed as “prevents”. Also, the “breast cancer-induced bone resorption (bone loss)” value with tissue engineered bone [2] (continuous PTH treatment (cPTH)) is reported as “does not reduce”; in the assay with tissue engineered bone [2] (intermittent PTH treatment (iPTH)) it was “can reduce”. Besides, in assay [3], the “breast cancer cell invasion into tissue engineered bone” value is “significantly reduces”. In addition, the “breast cancer cell-bone metastasis” value in assay [4] was “specifically reduce”. For the same molecule, the “breast cancer cell proliferation” value in assay [5] was “does not impact”. In addition, the “osteoblast cell survival in the presence of breast cancer invasion” value in the assay with hMSC-derived osteoblasts is “enhances”.
